Results from patent US20260102468A1, “COMPOSITIONS AND METHODS FOR MARCO INHIBITION AND IMPROVED DRUG DELIVERY” (BOARD OF REGENTS, THE UNIVERSITY OF TEXAS SYSTEM, priority 2022, published 2026).

T1: MARCO (Mus musculus, UniProt Q60754)
T1 construct: secretion signal peptide (N); host or cells: Expi293 cells
T1 sequence (Q60754 with tags, fused parts or gaps): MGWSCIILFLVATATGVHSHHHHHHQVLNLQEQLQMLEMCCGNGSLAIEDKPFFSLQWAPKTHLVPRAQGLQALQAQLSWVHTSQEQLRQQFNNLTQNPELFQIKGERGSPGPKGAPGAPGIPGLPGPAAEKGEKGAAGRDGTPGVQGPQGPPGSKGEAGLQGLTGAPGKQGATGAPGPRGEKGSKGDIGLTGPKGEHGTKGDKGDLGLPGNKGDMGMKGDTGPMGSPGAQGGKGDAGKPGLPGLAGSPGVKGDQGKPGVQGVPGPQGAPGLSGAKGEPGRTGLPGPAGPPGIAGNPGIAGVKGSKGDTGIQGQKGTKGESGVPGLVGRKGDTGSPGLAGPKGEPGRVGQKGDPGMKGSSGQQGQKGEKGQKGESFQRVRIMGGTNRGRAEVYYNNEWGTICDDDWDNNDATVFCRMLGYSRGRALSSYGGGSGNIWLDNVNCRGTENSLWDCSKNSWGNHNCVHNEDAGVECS


Tests used:
liver CD11b+ cells = assay: Doxorubicin uptake by liver CD11b+ cells in treated mice (flow cytometry); type: in vivo; conditions: flow cytometry of digested liver cells
macrophages = assay: Nanoparticle uptake (phagocytosis) by macrophages after MARCO knockdown or blockade; type: cell-based, mouse; conditions: with or without incubation with recombinant MARCO protein
Method: The effect of MARCO expression on nanoparticle uptake by macrophages in vitro was tested. […] On day 5 following macrophage collection and culture, the siRNAs were mixed with the DharmaFECT 4 transfection reagent (Horizon, T-2004-02) at a final concentration of 100 nM, after which the cells were incubated with the siRNA for 48 hours. The siRNAs used in this study were as follows: Control siRNA (Cell Signaling Technology, 6568S) and Marco siRNA (Millipore Sigma, SASI_Mm01_00200135, SASI_Mm02_00319301).
Scale bar=50 μm. White arrows indicate cells that have taken up nanoparticles. […] Unpaired t-test.
For the nanoparticle phagocytosis assay, cells were plated in Costar 24-well Clear Flat Bottom Ultra-Low Attachment Multiple Well Plates (Corning, 3473) at a density of 10^5 cells/well. Nanoparticles or drug were added to the wells at the following concentrations: nanoparticles, 10^2-10^4/cell; Abraxane, 1 μg/mL; doxorubicin (Doxil), 20 μg/mL. Plates were then transferred to a cell culture incubator, and 2 hours later the cells were collected and washed followed by fixation with 4% paraformaldehyde. The cells were stained with fluorescence-labeled antibodies and analyzed by flow cytometry. The mean fluorescence intensity or the percentage of fluorescence-positive cells was used to compare the uptake of nanoparticles or drug.

[1] = parameters: species or system mice; conditions: mouse, in vivo, iv
Method: Anti-MARCO, monoclonal MARCO antibody, clone ED31, 2.5 mg/kg; rMARCO, recombinant MARCO protein SRCR domain, 0.3 mg/kg; NP, 100 nm nanoparticles, 10^11 particles injected through tail vain. n=3 mice for each treatment group at each time point. One way ANOVA with correction for multiple comparison was used to compare the difference between NP and other treatment groups. Error bars are means±SD.
Blockade of MARCO-nanoparticle interaction decreased nanoparticle uptake by liver in mice. Two strategies for blocking the MARCO-nanoparticle interaction were tested: with antibody to directly block the MARCO receptors on the cell or with recombinant MARCO protein to saturate the MARCO binding capacity of the particles. Young female C57BL6 background mice (aged 6 weeks) were intravenously injected with fluorescence-labelled 100 nm PEGylated polystyrene nanoparticles (NP, 10^11 particles per 20 g of body weight) with or without recombinant MARCO protein (SRCR domain, 0.3 mg/kg). Liver IVIS imaging was done 4 h after the injection. […] Unpaired t-test.

E0771 tumor cells [2] = assay: E0771 breast cancer mouse model, ABRAXANE plus MARCO blockade; type: in vivo, mice
Method: For this study, one million E0771 tumor cells were implanted in young female C57BL6 mice (aged 6 weeks old). Tumor growth was measured every 3 days with calipers. Tumor volume was calculated as: Volume=0.5×Length×Width^2. When tumor volume reached around 60-80 mm^3 the treatment was started. The mice were treated with paclitaxel-protein particles (ABRAXANE®, 20 mg/kg) or ABRAXANE® plus MARCO blockade agents (anti-MARCO antibody, 2.5 mg/kg; ECD (extracellular domain), MARCO protein extracellular domain, 1.5 mg/kg; SRCR, or MARCO protein scavenger receptor cysteine-rich (SRCR) domain, 0.3 mg/kg). IgG plus 0.9% sodium chloride was used as a control.
One-way analysis of variance with post hoc testing was used to compare tumor volumes at day 18 after treatment. Error bars are means±S.E.M. We used the same experimental setup with the breast E0771 tumor model and treatment doses as the young animals (ABRAXANE®, 20 mg/kg, and/or MARCO protein scavenger receptor cysteine-rich (SRCR) domain, 0.3 mg/kg).
To determine the specificity of the effects of recombinant MARCO protein blockade, additional control experiments in which mouse serum protein was used as an irrelevant protein control and the ECD^Δ as the minimal-binding MARCO control were performed.

E0771 tumor cells [3] = assay: E0771 breast cancer mouse model, DOXIL plus MARCO blockade; type: in vivo, mice; conditions: DOXIL 2 mg/kg + SRCR 0.3 mg/kg
Method: For this study, one million E0771 tumor cells were implanted in young female C57BL6 mice (aged 6 weeks old). Tumor growth was measured every 3 days with calipers. Tumor volume was calculated as: Volume=0.5×Length× Width^2. When tumor volume reached around 60-80 mm^3 the treatment was started. The mice were treated with Doxil (DOXIL®, 2 mg/kg) or DOXIL® plus MARCO blockade agent (MARCO recombinant protein, SRCR domain, 0.3 mg/kg). 0.9% sodium chloride was used as a control. All agents were injected intravenously 2 times each week for a total of 5 treatments. FIGS. 9A and 33A-33B show growth curves for the E0771 mice treated by DOXIL® or DOXIL® plus MARCO blockade. n=5-6 mice in each treatment arm. Un-paired t-test was used to compare tumor volumes at day 18. […] FIGS. 33C-33D show survival curves of young and old mice bearing E0771 tumors in the groups treated with Doxil (DOXIL®, 2 mg/kg) or DOXIL® plus MARCO blockade agent (MARCO recombinant protein, SRCR domain, 0.3 mg/kg).
Control vs. MARCO or Doxil vs. DoxM were compared with unpaired/tests. Error bars are means±S.E.M. The present inventors used the same experimental setup with the breast E0771 tumor model and treatment doses as the young animals (DOXIL®, 2 mg/kg, and/or MARCO protein scavenger receptor cysteine-rich (SRCR) domain, 0.3 mg/kg).

nab-paclitaxel = assay: Pull-down of nab-paclitaxel by recombinant MARCO proteins (Western blot of albumin); type: binding; conditions: 0.1 mg/mL SRCR, 0.5 mg/mL ECD or 0.4 mg/mL ECD^Δ with nab-paclitaxel 5 mg/mL, His-tag pulldown
Method: (§1) Consistent with a previous report (Brannstrom, A., et al. 2002. Biochem Biophys Res Commun 290, 1462-1469), the SRCR^R→A and SRCR^Δ mutations of MARCO were not expressed. […] Next, the binding capacity of MARCO to particles and nanomedicine was tested. Centrifugal filters were used to isolate unbound MARCO after incubating the SRCR (0.1 mg/mL) with different concentrations of nanoparticles. The MARCO recombinant proteins (0.1 mg/mL SRCR, 0.5 mg/mL ECD, or 0.4 mg/mL ECD^Δ) were incubated with nab-paclitaxel (5 mg/mL, paclitaxel concentration). After 15 min at room temperature with gentle shaking, the mixture was further incubated with the Dynabeads His-Tag isolation and Pulldown (ThermoFisher, Cat. #10103D). After magnetic separation and three washes with PBS, the beads were boiled in western blot sample buffer for subsequent western blotting. Primary antibodies used for western blots were albumin, CST, Cat. #4929, 1:1000; and His-Tag, CST, Cat. #2365, 1:1000. To test the binding capacity of MARCO, 0.1 mg/mL of SRCR was incubated for 15 min at room temperature with different concentrations of nab-paclitaxel or nanoparticles. The mixture was centrifuged through a 30-kDa cutoff filter (Millipore, UFC903096) at 1000 g for 30 minutes. The unbound SRCR in the lower part of the tube was examined by western blotting. […]

MARCO = target: T1, MARCO; assay: Binding of nanoparticles with additional MARCO after saturation; conditions: pre-incubation with saturation doses of SRCR or ECD
Method: as §1

Row | Molecule | doxorubicin uptake by liver CD11b+ cells, young versus old mice (liver CD11b+ cells) | nanoparticle uptake by macrophages with recombinant MARCO protein (macrophages) | number of nanoparticles in the liver [1] | treatment outcome of ABRAXANE, older mice (E0771 tumor cells [2]; C57BL6 aged 50 weeks, ABRAXANE 20 mg/kg, SRCR 0.3 mg/kg or anti-MARCO antibody, day 18) | efficacy of combination treatment at increased SRCR concentration (E0771 tumor cells [2]; nab-paclitaxel 20 mg/kg, SRCR 3 mg/kg vs 0.3 mg/kg) | therapeutic effect of ABRAXANE (tumor growth inhibition), young mice (E0771 tumor cells [2]; young (6 weeks) female C57BL6, ABRAXANE 20 mg/kg i.v., antibody 2.5, ECD 1.5, SRCR 0.3 mg/kg, day 18) | treatment outcome of Doxil, older mice (E0771 tumor cells [3]; C57BL6 aged 50 weeks) | relative doxorubicin concentrations in tumors (E0771 tumor cells [3]; Doxil fluorescence intensity per mg of tissue, IVIS) | binding with nab-paclitaxel (nab-paclitaxel) | binding of nanoparticles with additional MARCO after saturation with recombinant MARCO (MARCO)
1 | COc1cccc2c1C(=O)c1c(O)c3c(c(O)c1C2=O)C[C@@](O)(C(=O)CO)C[C@@H]3O[C@H]1C[C@H](N)[C@H](O)[C@H](C)O1 [doxorubicin] | took up more doxorubicin than did the older mice |  |  |  |  |  |  |  |  | 
2 | SRCR: recombinant mouse MARCO protein scavenger receptor cysteine-rich (SRCR) domain, SEQ ID NO: 2 (protein, MARCO SRCR) MGWSCIILFLVATATGVHSHHHHHHQRVRIMGGTNRGRAEVYYNNEWGTICDDDWDNNDATVFCRMLGYSRGRALSSYGGGSGNIWLDNVNCRGTENSLWDCSKNSWGNHNCVHNEDAGVECS |  | decreased nanoparticle uptake by macrophages | significantly reduced the number of nanoparticles in the liver | does not enhance the treatment outcome of abraxane in older mice | nor did further increasing the concentration of SRCR enhance the efficacy of combination treatment | enhanced the inhibition of tumor growth in young mice treated with nab-paclitaxel | does not enhance the treatment outcome of Doxil in older mice | increased the relative doxorubicin concentrations in tumors | could strongly bind with nab-paclitaxel | could not bind with additional MARCO
